Data from patent publication US20230293638A1 (Eli Lilly, published 2023).

T1: human gastric inhibitory peptide receptor (human, UniProt P48546 22-466)
T1 sequence (looked up): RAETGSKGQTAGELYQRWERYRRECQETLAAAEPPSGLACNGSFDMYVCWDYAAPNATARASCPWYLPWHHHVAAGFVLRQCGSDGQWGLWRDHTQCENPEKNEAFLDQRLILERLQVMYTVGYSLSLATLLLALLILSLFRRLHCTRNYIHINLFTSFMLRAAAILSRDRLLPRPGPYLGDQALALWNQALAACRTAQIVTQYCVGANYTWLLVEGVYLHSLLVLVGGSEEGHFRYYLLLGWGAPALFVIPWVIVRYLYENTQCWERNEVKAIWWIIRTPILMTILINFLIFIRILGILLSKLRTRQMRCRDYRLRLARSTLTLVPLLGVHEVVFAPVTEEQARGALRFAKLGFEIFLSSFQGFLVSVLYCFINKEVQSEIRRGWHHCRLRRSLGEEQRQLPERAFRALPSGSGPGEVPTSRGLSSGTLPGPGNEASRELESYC

B1: Peptide 104 (peptide)
peptide: YXEGTXTSDYSIXLDEKAQXEFIEYLIEGG
modifications: Aib2; αMeF(2F)6; αMeL13; K17((2-[2-(2-Amino-ethoxy)-ethoxy]-acetyl)2-(γGlu)-CO-(CH2)16-CO2H); Aib20; C-terminal NH2
B2: Peptide 265 (peptide)
peptide: YXEGTXTSDXSIXLDXKAQXEFIXXLIEGG
modifications: Aib2; αMeF(2F)6; 4Pal10; αMeL13; Orn16; K17((2-[2-(2-Amino-ethoxy)-ethoxy]-acetyl)2-(γGlu)-CO-(CH2)16-CO2H); Aib20; D-Glu24; αMeY25; C-terminal NH2

Columns and labels:
human GLP-1 receptor = human GLP-1 receptor (human, UniProt P43220 24-463); assay: cell-based or functional assay
[1] = target: T1, human gastric inhibitory peptide …; assay: cell-based or functional assay

Binder | hGLPIR cAMP EC50 ratio (human GLP-1 receptor) | hGIPR cAMP EC50 ratio [1]
B1 | 1.85 | –
B2 | 3.27 | 9.77
